Key:
[1] = biological target: human BRS3 (ENSG00000102239) (human) (UniProt P32247); test: flow cytometry, live human sperm; antibody not named (SC33404 is the only BRS3 antibody that bound)
[2] = biological target: human FMR1NB (ENSG00000176988) (human) (UniProt Q8N0W7); test: flow cytometry, live human sperm; antibody not named (only one FMR1NB antibody was tried)
Chain of UniProt Q8N0W7 (Q8N0W7 whole entry): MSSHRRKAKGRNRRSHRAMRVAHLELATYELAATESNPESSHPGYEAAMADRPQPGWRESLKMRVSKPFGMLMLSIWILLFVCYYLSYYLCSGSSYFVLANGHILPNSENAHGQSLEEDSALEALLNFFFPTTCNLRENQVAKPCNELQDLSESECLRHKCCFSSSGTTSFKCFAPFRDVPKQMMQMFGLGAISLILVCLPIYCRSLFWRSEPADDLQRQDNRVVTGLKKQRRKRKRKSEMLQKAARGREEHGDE

Chain of UniProt P32247 (P32247 whole entry): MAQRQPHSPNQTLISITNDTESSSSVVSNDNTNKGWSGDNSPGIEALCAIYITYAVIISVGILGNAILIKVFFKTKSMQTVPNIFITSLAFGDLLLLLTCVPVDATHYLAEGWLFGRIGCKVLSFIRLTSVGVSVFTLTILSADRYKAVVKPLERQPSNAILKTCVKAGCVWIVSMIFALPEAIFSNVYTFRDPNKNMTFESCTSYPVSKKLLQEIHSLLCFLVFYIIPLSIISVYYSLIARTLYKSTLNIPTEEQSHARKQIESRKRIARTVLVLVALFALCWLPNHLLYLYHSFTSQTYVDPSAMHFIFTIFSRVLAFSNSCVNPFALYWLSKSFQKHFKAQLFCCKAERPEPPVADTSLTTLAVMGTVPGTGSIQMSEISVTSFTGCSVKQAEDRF

Q: Which Sperm cells showing specific binding (%) [1] does the source give for “BRS-3 (N-14), Santa Cruz Biotechnology SC-33404 (antibody)” here?
A: 10.7%

Q: How did the Sperm cells showing specific binding (%) [2] turn out when “FMR1NB antibody, Proteintech Group 11069-2-AP” was run?
A: 29.7%
